Test results: patent US20240409645A1 (DUALYX, published 2024)

B1: FJ1427_P035MP02E12 (VHH)
VHH: QVQLQESGGGLVQAGGSMRLSCAASGRTFSNYVIAWFRQAPGKEREFVGAITQTGRGTFYASSVEGRFTLSRLNDQSTVYLQMNSLNPEDTGVYYCSAPRSGRAGTRNQMDYEYWGQGTQVTVSS
notes: soluble VHH in periplasmic extract; also called clone nr
B2: FJ1427_P035MP03H04 (VHH)
VHH: QVQLVESGGGLVQAGGSLALSCAASGGTFSSYAMGWFRQAPGKEREFVAATTRGGGRTMYAVSTEGRFSCSRDNAKNTVYLLIKNLKPEDTAVYYCAARTSYYDGTYYPASSDFDIWGQGTQVTVSS
notes: as for B1
B3: FJ1427 P035MP03C04 (VHH)
VHH: EVQLVESGGGLVQAGASLELSCAASGGTFSSYAMGWFRQAPGKEREFVAATTRGGGRTMYAVSTEGRFSCSRDNAKNTVNLLIKNLKPEDTAVYYCAARTSYYDGTYYPASSDFDIWGQGTQVTVSS
notes: as for B1
B4: FJ1427_P035MP03A02 (VHH)
VHH: QVQLVESGGGLVQAGGSLRLSCAASGGTFSSYAMGWFRQAPGKEREFVAATTRGGGRTMYAVSTEGRFTCSRDNAENTVYLQMNSLKPEDTAIYYCAAMTSYYSGTYYPDSSDFDIWGQGTQVTVSS
notes: as for B1
B5: FJ1427_P035MP03G01 (VHH)
VHH: EVQLVESGGGLVQAGGSLRLSCAASGGTFSSYAMGWFRQAPGKEREFVAATTRGGGRTMYAVSTEGRFTCSRDNAKNTVYLLMNRVKPEDTAVYYCAARTSYYSGTYYPASSDFDIWGQGTQVTVSS
notes: as for B1
B6: FJ1427 P035MP03H05 (VHH)
VHH: QLQLVESGGGLVQAGGSLALSCAASGGTFSSYAMGWFRQAPGKEREFVAATTRGGGRTMYAVSTEGRFSCSRDNAKNTVYLLIKNLKPEDTAVYYCAARTSYYDGTYYPASSDFDIWGQGTQVTVSS
notes: as for B1
B7: FJ1427 P035MP03E01 (VHH)
VHH: QVQLVESGGGLVQAGGSLRLSCAASGGTFSSYAMGWFRQAPGKEREFVAATTRGGGRTMYAVSTEGRFTCSRDNAKNTVYLLMNSLKPEDTAVYYCAAMTSYYSGTYYPDSSDFDIWGQGTQVTVSS
notes: as for B1
B8: FJ1427 P035MP03C02 (VHH)
VHH: QVQLVESGGGLVQVGDSLRLSCAASGRTVGSANMGWFRQAPGKEREFVAVITWSTGSTVYADSVKGRFTISRDNAKNTVYLDMSSLKPEDTAVYYCAADVYPYSGNLNIMDYWGKGTLVTVSS
notes: as for B1
B9: FJ1427_P035MP03F01 (VHH)
VHH: QVQLVESGGGLVQVGGSLRVSCAASGRTSGDRNMGWFRQAPGKEREFVGIITWSSGSTVYADSVKGRFTISRDNAKNTVYLDMSSLKPEDTAVYYCAADYYPYSGSWNIMDYWGKGTLVTVSS
notes: as for B1
B10: FJ1427_P035MP03B02 (VHH)
VHH: EVQLVESGGGLVQVGDSLRLSCAASGRTVGSANMGWFRQAPGKEREFVAVITWSTGSTVYADSVKGRFTISRDNAKNTVYLDMSSLKPDDTAVYYCAADVYPYSGNLNIMDYWGKGTLVTVSS
notes: as for B1
B11: FJ1427_P035MP03D03 (VHH)
VHH: QVQLVESGGGLVQVGDSLRLSCAASGRTVGSANMGWFRQAPGKEREFVAVITWSTGSTVYADSVKGRFTISRDNAKNTVYLDLSSLKPEDTAVYYCAADVYPYSGNLNIMDYWGKGTQVTVSS
notes: as for B1
B12: FJ1427_P035MP03E02 (VHH)
VHH: QVQLVESGGGLVQVGGSLSVSCAASGRSFDSITMAYFRQAPGNEREFIAGINFSGSRTAYGDSVKGRFTISRDNAKNTVFLQMNSLNPEDTAVYYCAASPRGFYGPGHALYDYWGQGTQVTVSS
notes: as for B1
B13: FJ1427_P035MP03H01 (VHH)
VHH: QVQLVESGGGSVQTGGSLRLSCVVSGSHFISDVMGWYRQVPGKQRELVADMADGGSAKYADSVKGRFTILRDSVKNTVTLQMSSLNPEDTGVYYCKAGLWITGRHSDYWGQGTQVTVTS
notes: soluble VHH in periplasmic extract; also called clone nr; 200
B14: FJ1427 P035MP03D02 (VHH)
VHH: QVQLQESGGGLVQTGGSLRLSCAVSGSRFISDVMGWYRQVPGKQRELVADMADGGSAKYADSVKGRFSILRDSVKNTVYLQMSSLKPEDTGIYYCKAGLWLAGRHSDYWGQGTQVTVSS
notes: as for B1
B15: FJ1427 P035MP03A03 (VHH)
VHH: EVQLVESGGGSVQTGGSLRLSCVVSGSHFISDVMGWYRQVPGKQRELVADMADGGSVKYGDSVKGRFTILRDSVKNTVTLQMSSLNPEDTGVYYCKAGLWITGRHFDYWGQGTQVTVTS
notes: as for B1
B16: FJ1427_P035MP03A04 (VHH)
VHH: EVQLVESGGGSVQTGGSLRLSCVVSGSHFISDVMGWYRQVPGKQRELVADMADGGSVKYGDSVKGRFTILRDSVKNTVTLQMSSLNPEDTGVYYCKAGLWITGRHFDYWGQGTQVTVTS
notes: as for B1
B17: FJ1427_P035MP03E04 (VHH)
VHH: QVQLVESGGGLVQTGGSLRLSCAVSGSHFISDVMGWYRQVPEKQRELVADMADGNSAKYADSVKGRFSILRDSVKNTVYLQMSSLKPEDTGIYYCKAGLWIAGRHSDYWGQGTQVTVSS
notes: as for B1
B18: FJ1427_P035MP03F03 (VHH)
VHH: QVQLVESGGTLVQTGGSLRLSCVVSGSHFISDVMGWYRQVPGKQRELVADMADGGSAKYGDSVKGRFTIVRDSVKNTVYLQMSSLNPEDTGVYYCKAGLWIKGRHSDYWGQGTQVTVTS
notes: as for B1
B19: FJ1427_P035MP03B03 (VHH)
VHH: QLQLVESGGGLVQTGGSLRLSCAVSGSRFISDVMGWYRQVPGKQRELVADMADGGSAKYADSVKGRFSILRDSVKNTVYLQMSSLKPEDTGIYYCKAGLWIAGRHSDYWGQGTQVTVSS
notes: soluble VHH in periplasmic extract; also called clone nr; 210
B20: FJ1427 P035MP02F12 (VHH)
VHH: QLQLVESGGGLVQTGTSLRLSCAASGHTSRINAMGWFRQFPGKEREFVAAISRNGGSTVYVDSVKGRFTISRDNAKSTVYLQMNSLKPEDTAVYYCTATDAVGWTTRWMTADFGFWGQGTQVTVSS
notes: soluble VHH in periplasmic extract; also called clone nr; 190
B21: FJ1427_P035MP03G02 (VHH)
VHH: EVQLVESGGGLVQPGGSLRLSCAISGGTLDSYGIGWVRQAPGKQREGVSCMSRSDDRTFYADSVKGRFTISKDNAKSTVYLQMTNLKPDDTAVYYCAAVDAYGCSLVQPTTYDFWGLGTQVTVSS
notes: as for B1
B22: FJ1427_P035MP03E03 (VHH)
VHH: QVQLVESGGGLVQPGGSLRLSCAVSGGTLHDYGIGWIRQAPGKQREGVSCMSRSDDKTYYADYVKGRFTISKDNAKNTVYLQMISLKPEDTAVYYCAAVDAYGCSLVQPTTYDYWGQGTQVTVSS
notes: as for B1
B23: FJ1427 P035MP03D01 (VHH)
VHH: QVQLVESGGGLVQPGGSLGLSCAASGFTFDNYAMSWVRQAPGKGLEWVSSITGAGRGTHYADSVKGRFTISRDNAKNTLYLQMNSLKPEDTAVYYCAKYSSSTYYPPTPARGTDYRGPGTQVTVSS
notes: as for B1
B24: FJ1427_P035MP03G03 (VHH)
VHH: QVQLVESGGGLVQPGGSLGLSCAASGFTFDNYAMSWVRQAPGKGLEWVSSITGAGRGTHYADSVKGRFTISRDNAKNTLYLQMNSLKPEDTAVYYCAKYSSSTYYPPTPARGTDYRGPGTQVTVSS
notes: as for B1
B25: FJ1427 P035MP03B01 (VHH)
VHH: QVQLVESGGGLVQAGGSLRLSCAASGFTFSNYAMSWVRQAPGKGLEWVSSITGFGRGTDYADSVKGRFTISRDNAKNTLYLQMNSLKPEDTAVYYCARYSSSTYYPPTPARGTDYRGQGTQVTVSS
notes: as for B1
B26: FJ1427_P035MP03E06 (VHH)
VHH: QVQLVESGGGLVQAGRSLGLSCAASGFTFDNYAMSWVRQAPGKGLEWVSSITGAGRGTHYADSVKGRFTISRDNAKNTLYLQMNSLKPEDTAVYYCAKYSSSTYYPPTPARGTDYRGPGTQVTVSS
notes: as for B1
B27: FJ1427 P035MP03D04 (VHH)
VHH: QVQLVESGGGLVQPGGSLRLSCAASGFTFSNYAMSWVRQAPGKELEWVSSITSAGRGTHYADTVKGRFTISRDNDENTLYLQMNSLEPEDTAVYYCAKYSSATYYPPTPAQGRDYRGQGTQVTVSS
notes: soluble VHH in periplasmic extract; also called clone nr; 220
B28: FJ1427_P035MP03F02 (VHH)
VHH: QVQLVESGGGLVQPGGSLRLSCAASGFTFSNYAMSWVRQAPGKGLEWVSSITGAGRGTYYADSVKGRFTISRDNDKNTLYLQMNSLKPEDTAVYYCAKYDSSTYYPPTPARGIADRGQGIQVTVSS
notes: as for B1

Columns and labels:
human IL-2Rβ [1] = target: T1, human IL-2Rβ (human, UniProt P14784 27-240, limits assumed); assay: P.E. binding ELISA on coated protein
T1 construct: Recombinant protein, coated (ELISA) or immobilised on CM5 (SPR); also called hu IL-2R; interleukin 2 receptor β-chain
T1 sequence: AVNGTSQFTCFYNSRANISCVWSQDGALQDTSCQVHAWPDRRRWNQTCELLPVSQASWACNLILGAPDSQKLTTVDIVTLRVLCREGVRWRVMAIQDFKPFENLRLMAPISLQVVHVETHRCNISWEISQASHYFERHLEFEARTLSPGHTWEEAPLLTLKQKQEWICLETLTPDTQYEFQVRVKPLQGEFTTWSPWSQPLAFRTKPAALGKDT
Description: In a binding ELISA, human or mouse IL-2Rα, IL-2Rβ and IL-2Rγ proteins were coated directly on maxisorp microtiter plates overnight at 4° C. Free binding sites were blocked using 4% Marvel in PBS for 1 hour. Next, 1:5 dilution of P.E. in 1% Marvel/PBS were added to wells and incubated for 1 hour. […] Binding specificity was determined based on O.D. at 450 nm values compared to negative controls.

human IL-2Rβ [2] = target: T1, human IL-2Rβ; assay: SPR (Biacore), P.E. off-rate ranking

| Binder | P.E. binding ELISA OD (human IL-2Rβ [1]) [OD450 nm] | koff (human IL-2Rβ [2]) [s⁻¹] |
| --- | --- | --- |
| B1 | 0.108 | 0.0115 |
| B2 | 0.262 | 0.000431 |
| B3 | 0.395 | 0.000307 |
| B4 | 0.28 | 0.00104 |
| B5 | 0.192 | 0.00058 |
| B6 | 0.316 | 0.000772 |
| B7 | 0.329 | 0.000323 |
| B8 | 0.828 | 0.00159 |
| B9 | 0.221 | 0.00447 |
| B10 | 0.529 | 0.00241 |
| B11 | 0.265 | 0.000538 |
| B12 | 0.488 | 0.00124 |
| B13 | 0.327 | 0.000365 |
| B14 | 0.116 | 0.000796 |
| B15 | 0.296 | 0.000248 |
| B16 | 0.305 | 0.000373 |
| B17 | 0.22 | 0.000253 |
| B18 | 0.107 | 0.000361 |
| B19 | 0.31 | 0.000499 |
| B20 | 0.628 | 0.00294 |
| B21 | 0.684 | 0.000754 |
| B22 | 0.281 | 0.00136 |
| B23 | 0.307 | 0.00127 |
| B24 | 0.137 | 0.00114 |
| B25 | 0.203 | 0.0011 |
| B26 | 0.299 | 0.00116 |
| B27 | 0.447 | 0.0016 |
| B28 | 0.113 | 0.00191 |
